Results from US20260184748A1 (University of Pennsylvania, published 2026).
Where no end group is shown, it is not given here.

Assays:
Assay in all cases: cell-based or functional assay
CXCR5 = target: T1, CXCR5 (UniProt P32302 1-372)
T1 sequence (looked up): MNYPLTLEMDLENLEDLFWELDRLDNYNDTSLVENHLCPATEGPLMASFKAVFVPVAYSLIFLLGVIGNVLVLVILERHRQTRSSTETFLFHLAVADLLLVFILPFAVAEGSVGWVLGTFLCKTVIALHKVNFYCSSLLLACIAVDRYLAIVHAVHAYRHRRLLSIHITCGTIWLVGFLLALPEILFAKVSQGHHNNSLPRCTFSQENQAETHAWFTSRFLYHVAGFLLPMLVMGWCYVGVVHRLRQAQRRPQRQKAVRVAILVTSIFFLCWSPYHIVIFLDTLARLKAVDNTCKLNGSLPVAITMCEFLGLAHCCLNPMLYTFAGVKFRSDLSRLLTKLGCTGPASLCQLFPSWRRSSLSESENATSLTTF

EBI2 = EBI2 (UniProt P32249 1-361)
EBI2, sequence (P32249 whole entry): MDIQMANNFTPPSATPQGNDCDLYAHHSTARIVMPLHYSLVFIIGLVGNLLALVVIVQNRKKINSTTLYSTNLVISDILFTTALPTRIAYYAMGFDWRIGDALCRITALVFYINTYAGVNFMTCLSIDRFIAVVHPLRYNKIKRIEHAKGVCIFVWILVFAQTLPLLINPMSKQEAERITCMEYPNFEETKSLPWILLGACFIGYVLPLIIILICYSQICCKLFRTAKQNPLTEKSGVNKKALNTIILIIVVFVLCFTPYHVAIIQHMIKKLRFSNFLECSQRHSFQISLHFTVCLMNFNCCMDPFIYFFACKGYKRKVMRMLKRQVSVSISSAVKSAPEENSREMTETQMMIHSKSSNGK

CCKAR = target: T2, CCKAR (UniProt P32238 1-428)
T2 sequence (looked up): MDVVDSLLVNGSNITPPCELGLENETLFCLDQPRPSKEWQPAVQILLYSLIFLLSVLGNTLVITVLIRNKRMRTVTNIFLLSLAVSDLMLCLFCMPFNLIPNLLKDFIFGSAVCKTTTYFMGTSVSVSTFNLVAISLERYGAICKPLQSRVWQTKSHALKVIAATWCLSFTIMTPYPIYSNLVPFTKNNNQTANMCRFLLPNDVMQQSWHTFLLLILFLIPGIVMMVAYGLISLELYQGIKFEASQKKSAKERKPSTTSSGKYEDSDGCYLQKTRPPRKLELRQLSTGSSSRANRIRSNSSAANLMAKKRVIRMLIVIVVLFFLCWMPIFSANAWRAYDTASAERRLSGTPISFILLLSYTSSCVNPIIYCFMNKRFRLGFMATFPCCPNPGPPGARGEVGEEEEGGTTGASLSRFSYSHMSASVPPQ

LTB4R = LTB4R (UniProt Q15722 1-352)
LTB4R, sequence (Q15722 whole entry): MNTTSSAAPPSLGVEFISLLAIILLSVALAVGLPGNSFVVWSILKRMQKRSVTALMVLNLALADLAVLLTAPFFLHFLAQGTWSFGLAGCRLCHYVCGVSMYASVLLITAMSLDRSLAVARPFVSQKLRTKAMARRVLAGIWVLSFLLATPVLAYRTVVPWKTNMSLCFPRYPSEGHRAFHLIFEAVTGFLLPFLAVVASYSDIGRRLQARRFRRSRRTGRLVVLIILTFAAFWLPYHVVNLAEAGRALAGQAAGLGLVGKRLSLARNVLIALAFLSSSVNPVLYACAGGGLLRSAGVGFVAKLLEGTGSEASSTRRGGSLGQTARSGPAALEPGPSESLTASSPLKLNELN

ADRB1 = ADRB1 (UniProt P08588 1-477)
ADRB1, sequence (P08588 whole entry): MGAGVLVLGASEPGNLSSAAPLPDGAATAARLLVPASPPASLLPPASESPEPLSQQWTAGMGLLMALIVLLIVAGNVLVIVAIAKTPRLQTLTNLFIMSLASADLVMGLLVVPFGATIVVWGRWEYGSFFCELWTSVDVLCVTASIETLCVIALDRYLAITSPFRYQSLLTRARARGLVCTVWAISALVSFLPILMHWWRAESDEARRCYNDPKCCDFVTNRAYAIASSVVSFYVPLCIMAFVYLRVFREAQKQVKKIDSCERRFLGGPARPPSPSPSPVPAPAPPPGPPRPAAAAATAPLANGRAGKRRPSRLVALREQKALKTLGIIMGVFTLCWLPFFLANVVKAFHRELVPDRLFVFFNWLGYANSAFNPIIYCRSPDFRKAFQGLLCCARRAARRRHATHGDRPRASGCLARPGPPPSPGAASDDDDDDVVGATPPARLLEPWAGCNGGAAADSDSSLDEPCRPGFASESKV

HTR1B = HTR1B (UniProt P28222 1-390)
HTR1B, sequence (P28222 whole entry): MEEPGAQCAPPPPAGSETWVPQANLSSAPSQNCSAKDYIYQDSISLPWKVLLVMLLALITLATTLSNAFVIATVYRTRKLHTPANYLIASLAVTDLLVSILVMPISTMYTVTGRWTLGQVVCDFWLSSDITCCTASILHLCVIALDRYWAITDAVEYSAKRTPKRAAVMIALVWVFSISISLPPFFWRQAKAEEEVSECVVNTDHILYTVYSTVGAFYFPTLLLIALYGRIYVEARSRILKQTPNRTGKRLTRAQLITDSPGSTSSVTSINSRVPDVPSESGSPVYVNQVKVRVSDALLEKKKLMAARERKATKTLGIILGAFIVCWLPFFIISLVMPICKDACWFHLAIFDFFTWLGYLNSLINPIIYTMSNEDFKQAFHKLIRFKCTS

CCR7 = target: T3, CCR7 (UniProt P32248 25-378)
T3 sequence (looked up): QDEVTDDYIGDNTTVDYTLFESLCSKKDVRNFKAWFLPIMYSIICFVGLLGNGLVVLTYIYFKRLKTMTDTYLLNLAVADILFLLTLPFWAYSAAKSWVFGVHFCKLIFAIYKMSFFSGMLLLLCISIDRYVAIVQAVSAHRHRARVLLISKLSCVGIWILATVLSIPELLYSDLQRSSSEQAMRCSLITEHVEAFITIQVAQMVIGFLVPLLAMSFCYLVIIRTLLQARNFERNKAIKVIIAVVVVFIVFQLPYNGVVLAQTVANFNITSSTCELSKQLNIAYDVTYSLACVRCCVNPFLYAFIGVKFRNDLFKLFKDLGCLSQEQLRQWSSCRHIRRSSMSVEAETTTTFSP

MCHR2 = MCHR2 (UniProt Q969V1 1-340)
MCHR2, sequence (Q969V1 whole entry): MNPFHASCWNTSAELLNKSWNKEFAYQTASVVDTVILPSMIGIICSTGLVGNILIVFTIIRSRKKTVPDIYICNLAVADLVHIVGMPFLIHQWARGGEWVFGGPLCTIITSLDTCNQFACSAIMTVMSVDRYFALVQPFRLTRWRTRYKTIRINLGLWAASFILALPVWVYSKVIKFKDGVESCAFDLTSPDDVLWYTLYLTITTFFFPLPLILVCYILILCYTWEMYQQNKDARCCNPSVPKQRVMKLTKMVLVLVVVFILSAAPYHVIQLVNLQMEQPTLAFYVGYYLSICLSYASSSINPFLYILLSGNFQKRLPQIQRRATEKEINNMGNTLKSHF

EDNRB = target: T4, EDNRB (UniProt P24530 27-442)
T4 sequence (looked up): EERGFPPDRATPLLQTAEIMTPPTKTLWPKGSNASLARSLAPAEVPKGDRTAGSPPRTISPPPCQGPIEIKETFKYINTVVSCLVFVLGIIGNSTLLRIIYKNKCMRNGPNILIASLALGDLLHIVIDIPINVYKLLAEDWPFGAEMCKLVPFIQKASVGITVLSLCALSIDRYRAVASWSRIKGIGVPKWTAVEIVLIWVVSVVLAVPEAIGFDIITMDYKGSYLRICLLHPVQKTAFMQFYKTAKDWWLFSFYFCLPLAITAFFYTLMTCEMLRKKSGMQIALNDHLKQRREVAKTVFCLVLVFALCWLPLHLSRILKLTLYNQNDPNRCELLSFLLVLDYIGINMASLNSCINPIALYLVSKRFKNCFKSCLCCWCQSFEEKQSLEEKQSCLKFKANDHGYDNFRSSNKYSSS

LHCGR = LHCGR (UniProt P22888 27-699)
LHCGR, sequence (P22888 27-699 limits assumed): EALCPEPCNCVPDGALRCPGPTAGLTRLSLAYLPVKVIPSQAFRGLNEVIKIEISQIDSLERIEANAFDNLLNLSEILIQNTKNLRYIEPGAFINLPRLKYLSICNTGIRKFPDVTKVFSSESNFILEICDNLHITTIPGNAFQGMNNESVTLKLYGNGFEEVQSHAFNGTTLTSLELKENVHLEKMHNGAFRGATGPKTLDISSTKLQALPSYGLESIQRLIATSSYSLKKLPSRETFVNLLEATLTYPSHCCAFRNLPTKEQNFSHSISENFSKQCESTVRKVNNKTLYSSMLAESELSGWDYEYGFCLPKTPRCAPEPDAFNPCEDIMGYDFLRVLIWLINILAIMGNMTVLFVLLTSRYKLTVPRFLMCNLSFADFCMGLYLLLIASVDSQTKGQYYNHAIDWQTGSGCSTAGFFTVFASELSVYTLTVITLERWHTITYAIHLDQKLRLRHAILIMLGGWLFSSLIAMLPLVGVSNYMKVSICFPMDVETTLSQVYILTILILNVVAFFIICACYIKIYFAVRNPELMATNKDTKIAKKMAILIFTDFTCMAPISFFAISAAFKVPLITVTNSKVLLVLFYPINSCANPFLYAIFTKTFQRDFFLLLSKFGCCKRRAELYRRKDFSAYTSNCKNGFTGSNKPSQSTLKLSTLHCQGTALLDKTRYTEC

GPR1 = target: T5, GPR1 (UniProt P46091 1-355)
T5 sequence (looked up): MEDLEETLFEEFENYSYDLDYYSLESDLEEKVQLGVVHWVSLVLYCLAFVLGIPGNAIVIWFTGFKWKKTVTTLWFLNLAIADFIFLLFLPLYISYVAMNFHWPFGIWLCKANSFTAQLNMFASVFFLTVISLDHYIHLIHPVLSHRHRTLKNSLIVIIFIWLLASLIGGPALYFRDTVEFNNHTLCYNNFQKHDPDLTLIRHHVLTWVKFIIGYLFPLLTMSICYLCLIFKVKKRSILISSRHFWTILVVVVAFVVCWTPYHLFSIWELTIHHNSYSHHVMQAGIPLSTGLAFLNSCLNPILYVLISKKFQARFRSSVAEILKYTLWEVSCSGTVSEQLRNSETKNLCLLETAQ

KISS1R = KISS1R (UniProt Q969F8 1-398)
KISS1R, sequence (Q969F8 whole entry): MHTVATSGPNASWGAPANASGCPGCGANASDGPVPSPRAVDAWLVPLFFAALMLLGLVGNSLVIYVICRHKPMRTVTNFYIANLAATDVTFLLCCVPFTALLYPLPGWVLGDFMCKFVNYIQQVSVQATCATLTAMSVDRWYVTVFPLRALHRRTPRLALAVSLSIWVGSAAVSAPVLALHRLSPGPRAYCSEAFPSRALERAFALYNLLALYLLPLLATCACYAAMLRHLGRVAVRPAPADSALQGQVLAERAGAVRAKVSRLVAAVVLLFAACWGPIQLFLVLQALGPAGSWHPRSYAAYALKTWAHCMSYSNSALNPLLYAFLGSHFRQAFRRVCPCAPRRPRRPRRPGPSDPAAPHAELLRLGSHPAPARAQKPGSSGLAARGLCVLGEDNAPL

GHSR = GHSR (UniProt Q92847 1-366)
GHSR, sequence (Q92847 whole entry): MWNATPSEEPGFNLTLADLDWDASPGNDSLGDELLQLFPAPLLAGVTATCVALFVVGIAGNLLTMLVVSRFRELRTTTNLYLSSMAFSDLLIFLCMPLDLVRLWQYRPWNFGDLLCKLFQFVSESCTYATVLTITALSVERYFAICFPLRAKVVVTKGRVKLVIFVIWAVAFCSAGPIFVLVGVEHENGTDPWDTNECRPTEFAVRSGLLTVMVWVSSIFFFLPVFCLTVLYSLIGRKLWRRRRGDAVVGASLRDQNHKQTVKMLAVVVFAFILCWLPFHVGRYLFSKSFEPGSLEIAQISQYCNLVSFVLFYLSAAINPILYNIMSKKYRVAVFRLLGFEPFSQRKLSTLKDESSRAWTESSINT

CCR6 = target: T6, CCR6 (UniProt P51684 1-374)
T6 sequence (looked up): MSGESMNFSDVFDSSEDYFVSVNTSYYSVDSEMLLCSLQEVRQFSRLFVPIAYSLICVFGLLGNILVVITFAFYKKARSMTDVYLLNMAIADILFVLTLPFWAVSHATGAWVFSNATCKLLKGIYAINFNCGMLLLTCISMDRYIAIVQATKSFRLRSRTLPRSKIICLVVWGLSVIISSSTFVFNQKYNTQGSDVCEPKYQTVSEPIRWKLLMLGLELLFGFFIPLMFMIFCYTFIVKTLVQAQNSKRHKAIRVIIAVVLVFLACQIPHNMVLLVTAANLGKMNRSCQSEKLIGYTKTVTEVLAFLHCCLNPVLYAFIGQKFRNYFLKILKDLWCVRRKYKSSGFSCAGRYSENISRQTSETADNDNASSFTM

NTSR1 = NTSR1 (UniProt P30989 1-418)
NTSR1, sequence (P30989 whole entry): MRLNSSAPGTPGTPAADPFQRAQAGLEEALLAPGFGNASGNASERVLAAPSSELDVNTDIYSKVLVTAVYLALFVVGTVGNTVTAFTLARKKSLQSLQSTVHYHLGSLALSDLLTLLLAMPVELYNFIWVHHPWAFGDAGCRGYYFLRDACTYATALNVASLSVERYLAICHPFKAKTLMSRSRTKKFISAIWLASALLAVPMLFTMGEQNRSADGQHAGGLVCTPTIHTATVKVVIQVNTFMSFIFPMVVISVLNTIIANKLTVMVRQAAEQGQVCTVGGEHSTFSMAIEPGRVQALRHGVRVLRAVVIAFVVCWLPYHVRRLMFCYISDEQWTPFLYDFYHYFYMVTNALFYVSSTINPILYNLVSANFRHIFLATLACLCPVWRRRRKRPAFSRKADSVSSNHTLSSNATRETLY

## QATVGDVNTDRPGLLDLK (also: synthesised on Rink amide resin, C-terminal amide not given here outright) [octadecaneuropeptide (ODN)]
CXCR5
  % Activity, arrestin, antagonist mode, 2.5 uM: -18.9%
EBI2
  % Activity, arrestin, antagonist mode, 2.5 uM: -27.3%
CCKAR
  % Activity, arrestin, antagonist mode, 2.5 uM: -17.2%
LTB4R
  % Activity, arrestin, antagonist mode, 2.5 uM: 10.3%
ADRB1
  % Activity, arrestin, antagonist mode, 2.5 uM: 12.6%
HTR1B
  % Activity, arrestin, antagonist mode, 2.5 uM: -11.9%
CCR7
  % Activity, arrestin, antagonist mode, 2.5 uM: -19.2%
MCHR2
  % Activity, arrestin, antagonist mode, 2.5 uM: -10.5%
EDNRB
  % Activity, arrestin, antagonist mode, 2.5 uM: -9.9%
LHCGR
  % Activity, arrestin, antagonist mode, 2.5 uM: 7.2%
GPR1
  % Activity, arrestin, antagonist mode, 2.5 uM: -1.3%
KISS1R
  % Activity, arrestin, antagonist mode, 2.5 uM: 13.2%
GHSR
  % Activity, arrestin, antagonist mode, 2.5 uM: -7.4%
CCR6
  % Activity, arrestin, antagonist mode, 2.5 uM: -14.8%
NTSR1
  % Activity, arrestin, antagonist mode, 2.5 uM: -21.4%
